Reference: the supplement of paper PMC10126150
± gives the standard deviation of the averaged measurements.

System: ATP
Assay: switch fluorescence ratio, 500 uM ATP over buffer (Cy3 cluster intensity, sum of 5 cycles each) (fold (ratio)); higher = stronger signal-on switching upon ATP binding; sequences stand for … in TCGTCGGCAGCGTCAGATGTGTATAAGAGACAGTTTTTTTTTTTTTTTTTTTTTTTTT…TC
Conditions: aptamer strand: ATP DNA aptamer (quencher-CACCTGGGGGAGTATTGCGGAGGAAGG + anchor), 100 nM annealed; ATP concentration: 500 uM
Procedure, shortened: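 Per cluster, summed Cy3 intensity from the target cycles was divided by that from the buffer cycles to give the fluorescence ratio, then averaged per switch-domain sequence. Clusters outside 100-1000 RFU were excluded. The Cy3-labelled switching-strand clusters, on a modified Illumina MiSeq flow-cell, were annealed to 100 nM quencher-labelled ATP aptamer and imaged in selection buffer, then after 15 min with 500 uM ATP at 22 °C, for five cycles with NaOH stripping and re-annealing between them.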
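Note: ATP exposure 15 min at 22 °C before imaging.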

Sequence | switch fluorescence ratio
GGTACGTTTT | 1.03 ± 0.024
GGTACTACGG | 1.05 ± 0.017
GGTACTCATC | 1.02 ± 0.052
GGTACTTTGT | 1.03 ± 0.039
GGTAGAAAGG | 1.03 ± 0.093
GGTAGAGGGA | 0.9783 ± 0.0085
GGTAGAGGGT | 0.978 ± 0.066
GGTAGAGGTA | 1.02 ± 0.013
GGTAGATTCG | 0.994 ± 0.027
GGTAGATTGG | 0.961 ± 0.015
GGTAGATTTT | 0.9792 ± 0.003
GGTAGCAGGG | 1.014 ± 0.0097
GGTAGCCTGC | 1.02 ± 0.023
GGTAGCGAAG | 0.97 ± 0.026
GGTAGCTAAG | 1 ± 0.034
GGTAGGCAGG | 1 ± 0.021
GGTAGGGATA | 1.08 ± 0.11
GGTAGGGGGC | 1.01 ± 0.033
GGTAGTATCC | 1.02 ± 0.025
GGTAGTATTT | 0.996 ± 0.028
GGTAGTGGCT | 0.993 ± 0.01
GGTAGTGGGC | 1.02 ± 0.034
GGTATACTTA | 1.04 ± 0.0075

Sequence | switch fluorescence ratio
GGTATAGGGA | 1.01 ± 0.026
GGTATATCTT | 1.01 ± 0.076
GGTATATTAA | 1.02 ± 0.023
GGTATATTAG | 0.99 ± 0.028
GGTATATTTT | 1.03 ± 0.1
GGTATCAGTT | 1.0006 ± 0.0002
GGTATCGCGG | 1 ± 0.023
GGTATCTGTA | 1 ± 0.023
GGTATGCAGG | 0.985 ± 0.026
GGTATGCGCT | 0.9934 ± 0.0049
GGTATTACGA | 0.989 ± 0.036
GGTATTAGTG | 1.01 ± 0.021
GGTATTATTG | 0.998 ± 0.023
GGTATTTAAA | 0.982 ± 0.029
GGTCAAAGTG | 1.004 ± 0.0058
GGTCAGAAGG | 0.996 ± 0.026
GGTCATAATT | 0.986 ± 0.025
GGTCATGAGG | 0.989 ± 0.023
GGTCATGGGA | 0.99 ± 0.017
GGTCATGTTT | 0.993 ± 0.043
GGTCCGGGGC | 1.01 ± 0.026
GGTCCTCGGG | 1.03 ± 0.03
GGTCCTGGGG | 1.01 ± 0.039

Sequence | switch fluorescence ratio
GGTCCTTAAT | 0.989 ± 0.025
GGTCCTTAGG | 1 ± 0.021
GGTCCTTGTT | 1.005 ± 0.0018
GGTCGACTTT | 1.0094 ± 0.00072
GGTCGAGCC | 0.983 ± 0.021
GGTCGAGTGG | 0.988 ± 0.0032
GGTCGATGGT | 0.99 ± 0.011
GGTCGCATTC | 1.05 ± 0.047
GGTCGCTACA | 1.01 ± 0.026
GGTCGGCCGG | 1.0178 ± 0.00045
GGTCGGCGGG | 1.03 ± 0.1
GGTCGGCGTC | 1.014 ± 0.0089
GGTCGGGACG | 0.9588 ± 0.0015
GGTCGGGAGA | 0.96 ± 0.039
GGTCGGGGGC | 1.02 ± 0.031
GGTCGGGTAT | 1.01 ± 0.031
GGTCGGGTGC | 0.971 ± 0.047
GGTCGTAAGT | 0.988 ± 0.026
GGTCGTAGAT | 1.01 ± 0.036
GGTCGTTTCG | 1.01 ± 0.018
GGTCTACATG | 0.985 ± 0.0076
GGTCTAGG | 0.992 ± 0.036
GGTCTCTGGA | 1.01 ± 0.06

Sequence | switch fluorescence ratio
GGTCTGAGGG | 0.97 ± 0.032
GGTCTGATGG | 0.987 ± 0.035
GGTCTGGGAT | 0.9939 ± 0.0096
GGTCTGGGCT | 0.976 ± 0.017
GGTCTGTTAT | 1.04 ± 0.078
GGTCTGTTTG | 0.97 ± 0.025
GGTCTTCATT | 0.963 ± 0.011
GGTGAAAACG | 0.9913 ± 0.0094
GGTGACCGTT | 0.992 ± 0.012
GGTGACTGAG | 1.012 ± 0.009
GGTGAGACTT | 1 ± 0.031
GGTGAGGATG | 0.994 ± 0.018
GGTGAGGCGC | 0.985 ± 0.066
GGTGAGGGAG | 0.9998 ± 0.0044
GGTGAGGGGG | 1 ± 0.068
GGTGAGTGCA | 1.02 ± 0.07
GGTGAGTTGG | 0.977 ± 0.014
GGTGATAATG | 0.982 ± 0.031
GGTGATACGA | 1.07 ± 0.02
GGTGATGTTA | 0.9786 ± 0.0049
GGTGATTTGT | 1 ± 0.03
GGTGATTTTA | 1 ± 0.025
GGTGCACGGT | 0.978 ± 0.051

Sequence | switch fluorescence ratio
GGTGCAGACG | 1.03 ± 0.018
GGTGCATATT | 1.06 ± 0.081
GGTGCATGTG | 0.9713 ± 0.0013
GGTGCCTGAG | 1.06 ± 0.03
GGTGCGGCTG | 1.01 ± 0.073
GGTGCGGGAC | 1.16 ± 0.12
GGTGCGTTCT | 1 ± 0.043
GGTGCTGTCC | 1.033 ± 0.0011
GGTGCTTATA | 1 ± 0.013
GGTGGACCGA | 0.984 ± 0.083
GGTGGAGAGC | 0.99885 ± 0.00089
GGTGGATTCG | 1.06 ± 0.063
GGTGGCTGAA | 0.99 ± 0.022
GGTGGGAAGG | 0.993 ± 0.02
GGTGGGATGT | 0.981 ± 0.02
GGTGGGGGAT | 1.01 ± 0.015
GGTGGGGTAA | 0.9927 ± 0.0083
GGTGGGGTAG | 0.988 ± 0.021
GGTGGGGTGT | 0.982 ± 0.05
GGTGGGTAAT | 0.983 ± 0.015
GGTGGGTCGT | 1.014 ± 0.0095
GGTGGGTTAG | 1.02 ± 0.032
GGTGTAGGCG | 0.969 ± 0.039

Sequence | switch fluorescence ratio
GGTGTATAGT | 0.9908 ± 0.0079
GGTGTCGTG | 0.98 ± 0.024
GGTGTCTGT | 0.9738 ± 0.0044
GGTGTGATGG | 0.9512 ± 0.0085
GGTGTGCCGT | 0.989 ± 0.1
GGTGTGGGGA | 0.994 ± 0.025
GGTGTGTAGA | 1.02 ± 0.038
GGTGTGTTAA | 0.996 ± 0.042
GGTGTGTTTG | 1.01 ± 0.046
GGTGTTAGAG | 0.985 ± 0.0036
GGTGTTGAGA | 1.01 ± 0.04
GGTGTTGGAG | 0.997 ± 0.019
GGTGTTTCAT | 0.973 ± 0.053
GGTGTTTTTA | 1.07 ± 0.067
GGTTAAACAG | 0.982 ± 0.041
GGTTAAATTT | 0.987 ± 0.021
GGTTAACTAG | 1.02 ± 0.011
GGTTAACTGG | 0.991 ± 0.023
GGTTAAGATG | 0.986 ± 0.01
GGTTAAGGTG | 1.28 ± 0.071
GGTTAATCGG | 0.9983 ± 0.0029
GGTTAATTGG | 0.99 ± 0.047
GGTTACCAGA | 0.9973 ± 0.0065

Sequence | switch fluorescence ratio
GGTTACCGGC | 0.977 ± 0.079
GGTTACTGGA | 1.02 ± 0.018
GGTTACTTGG | 0.9885 ± 0.0097
GGTTAGCTGC | 0.991 ± 0.023
GGTTAGGTCG | 1.06 ± 0.081
GGTTAGGTGG | 0.99 ± 0.044
GGTTATCTTG | 1.01 ± 0.019
GGTTATGGCT | 0.9973 ± 0.0025
GGTTATTGTG | 0.968 ± 0.027
GGTTCAAGGA | 0.99 ± 0.063
GGTTCAGCGC | 1.03 ± 0.041
GGTTCAGGGT | 1.02 ± 0.023
GGTTCATGGT | 0.989 ± 0.011
GGTTCATTAG | 1.01 ± 0.037
GGTTCCAAAA | 1.02 ± 0.029
GGTTCGAAGT | 1.01 ± 0.048
GGTTCGGCTG | 0.982 ± 0.012
GGTTCTATAG | 0.993 ± 0.02
GGTTCTGGCC | 0.996 ± 0.013
